The values that follow come from PMC6549159.

This test concerns the target GFP-tagged mDia1ΔN3 (mouse) (UniProt O08808).
UniProt O08808, sequence (O08808 543-1192, stated change not applied): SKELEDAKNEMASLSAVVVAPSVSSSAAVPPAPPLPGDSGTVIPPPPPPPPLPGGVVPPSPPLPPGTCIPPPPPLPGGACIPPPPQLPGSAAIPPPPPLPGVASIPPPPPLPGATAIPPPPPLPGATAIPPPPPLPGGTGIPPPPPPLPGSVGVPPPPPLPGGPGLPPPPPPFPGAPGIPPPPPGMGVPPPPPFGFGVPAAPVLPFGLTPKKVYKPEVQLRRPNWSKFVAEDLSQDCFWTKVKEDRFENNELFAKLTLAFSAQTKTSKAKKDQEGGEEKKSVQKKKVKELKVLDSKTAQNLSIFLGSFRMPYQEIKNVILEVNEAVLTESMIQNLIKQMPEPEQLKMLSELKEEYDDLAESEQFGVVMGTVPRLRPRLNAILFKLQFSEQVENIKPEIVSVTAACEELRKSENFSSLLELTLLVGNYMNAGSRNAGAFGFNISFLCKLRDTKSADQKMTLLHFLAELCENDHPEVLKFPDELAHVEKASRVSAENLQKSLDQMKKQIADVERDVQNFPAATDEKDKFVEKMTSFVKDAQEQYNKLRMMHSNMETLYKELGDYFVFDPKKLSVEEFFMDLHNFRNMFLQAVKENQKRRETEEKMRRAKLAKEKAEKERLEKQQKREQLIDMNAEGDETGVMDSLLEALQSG

“Flag-tagged mouse Phb2 FL (from UniProt O35129 1-299) (natural protein)” had a frequency of MyoG+ cells (immunofluorescence) in C2C12 myotubes co-expressing Phb2 FL and mDia1ΔN3 (mDia1ΔN3 alone: 15%) of 53%.
